{"source": "patent US20120171123A1", "about": "“USES AND COMPOSITIONS FOR TREATMENT OF RHEUMATOID ARTHRITIS” (priority 2006, published 2012)", "key": {"adult patients with RA": {"system": "adult patients with RA", "test": "Study 1: DAS28 change by CRP category", "format": "in vivo, human", "method": "407 patients with active RA enrolled in the 2 study arms. Of these patients, 299 (73.5%) patients completed the study until Week 52 and were evaluated.\nPatients were grouped into three cohorts based on baseline CRP concentrations: low (<1 mg/dL); intermediate (1-4 mg/dL); and high (>4 mg/dL). Analyses were further conducted in two categories of patients according to their change in CRP concentrations at Week 12: those with a ≧20% decrease in CRP from baseline; or those with a <20% decrease in CRP from baseline. The following efficacy and radiographic measures were analyzed at Week 52 in the three baseline CRP categories and in the two Week 12 change in CRP categories: DAS28, ACR 20/50/70, Health assessment questionnaire (HAQ), and Total Sharp score (TSS)."}, "[1]": {"system": "patients with severe RA who had failed at least one DMARD", "test": "Study 2 / Study 3 OLE (adalimumab 40 mg eow monotherapy): HUI3 health utility", "format": "in vivo, human", "conditions": "for mean HUI3 change from baseline: week 26 (6 months), monotherapy", "method": "In addition to the SF-36 instrument, the Health Utilities Index Mark 3 (HUI3) and the Functional Assessment of Chronic Illness Therapy-Fatigue (FACIT-F) questionnaires were administered at baseline, 12 weeks, and the end of the study.\nThe HUI3 scale is 0-1, with “1” denoting perfect health and “0” denoting death. FACIT-F scores range from 0-52, with higher scores representing less fatigue. The SF-36 includes one multi-item scale that assesses eight different dimensions of health, including physical and psychosocial components. For each dimension a value of 0-100 is given, with higher numbers representing less impairment. Changes in HUI3 of ≧0.03, in FACIT-F of ≧4 and in SF-36 of ≧4.4 (physical subscales) and ≧3.1 (mental subscales) are considered clinically meaningful.\nThe HUI3 was assessed at baseline, and at several time points during the study. Health Utility Index 3 (scale=0-1) measures preference of a health state, with “1” denoting perfect health and “0” denoting death. HUI3 changes of ≧0.03 are considered clinically important. The HUI3 classification system consists of 8 attributes and 5 or 6 levels on each attribute, ranging from full function to severe impairment.\nInclusion criteria for this study included: all patients had severe active disease; and all patients had failed prior DMARD(s).\nThe Health Utilities Index Mark 3 (HUI3) was assessed at three time points. HUI 3 consists of 8 attributes: vision, hearing, speech, ambulation, dexterity, emotion, cognition, and pain. HUI3 score changes of ≧0.03 are considered clinically important. […] As can also be seen in this figure, the Study 2 study population started with baseline values reflecting a patient population with a more severe disease activity than in Study I, as documented by TJC, SJC, HAQ, CRP, and number of previous DMARDs.\nIn addition to clinical parameters, the SF-36 instrument, the Health Utilities Index Mark 3 (HUI3), and the Functional Assessment of Chronic Illness Therapy-Fatigue (FACIT-F) questionnaires were administered at baseline, and at weeks 12, 26, 50, 74, 98, 122, 146 and 170, respectively. The HUI3 scale ranges from 0-1, with “1” denoting perfect health and “0” denoting death. FACIT-F scores range from 0-52, with higher scores representing less fatigue. SF-36 scores range from 0-100 with higher scores indicating improvement in HRQoL. Changes in HUI3 scores of ≧0.03, 1 FACIT-F scores of ≧4, 2 and individual SF-36 domain scores of 5-103 are considered clinically meaningful."}, "[2]": {"system": "patients with long-standing RA"}}, "note": "Read-outs that look alike come from different tables or passages of the source.", "data": [{"compound": "CN(Cc1cnc2nc(N)nc(N)c2n1)c1ccc(C(=O)N[C@@H](CCC(=O)O)C(=O)O)cc1", "note": "[mtx alone, methotrexate]", "values": [{"measurement": "DAS28 mean change", "setting": "adult patients with RA; week 52, baseline CRP 1-4 mg/dL", "value": "−1.2"}, {"measurement": "DAS28 mean change", "setting": "adult patients with RA; week 52, baseline CRP <1 mg/dL", "value": "−1.3"}, {"measurement": "DAS28 mean change", "setting": "adult patients with RA; week 52, baseline CRP >4 mg/dL", "value": "−1.7"}]}, {"compound": "adalimumab: human anti-TNF mAb (HUMIRA, Abbott Laboratories), described in U.S. Pat. No. 6,090,382 as D2E7", "values": [{"measurement": "patients reaching HUI3 MCID of 0.03 change from baseline", "setting": "[1]; week 12 through week 170", "value": "about 60%"}, {"measurement": "mean HUI3 change from baseline", "setting": "[1]", "value": "0.18 a, b"}, {"measurement": "mean HUI3 change from baseline", "setting": "[1]; listed as ada", "value": 0.18}, {"measurement": "mean HUI3 improvement from baseline", "setting": "[1]; week 50 (1 year)", "value": "+0.17"}, {"measurement": "mean HUI3 improvement from baseline", "setting": "[1]; week 50 (1 year), listed as ada", "value": 0.17}, {"measurement": "mean HUI3 improvement from baseline", "setting": "[1]; week 170 (3 years)", "value": "+0.19"}, {"measurement": "mean HUI3 improvement from baseline", "setting": "[1]; week 170 (3 years), listed as ada", "value": 0.19}, {"measurement": "Demyelinating disease", "setting": "[2]; all exposure", "value": 0.04, "unit": "E/100-PY"}, {"measurement": "Lymphoma", "setting": "[2]; all exposure", "value": 0.16, "unit": "E/100-PY"}, {"measurement": "Pancytopenia", "setting": "[2]; all exposure", "value": 0.00, "unit": "E/100-PY"}, {"measurement": "Pneumonia", "setting": "[2]; all exposure", "value": 0.6, "unit": "E/100-PY"}, {"measurement": "Septic arthritis", "setting": "[2]; all exposure", "value": 0.12, "unit": "E/100-PY"}, {"measurement": "Tuberculosis", "setting": "[2]; all exposure", "value": 0.04, "unit": "E/100-PY"}, {"measurement": "Urinary tract infections", "setting": "[2]; all exposure", "value": 0.28, "unit": "E/100-PY"}, {"measurement": "Serious infections", "setting": "[2]; all exposure, 2485 patient-years", "value": 2.62, "unit": "E/100-PY"}, {"measurement": "Demyelinating disease", "setting": "[2]; pivotal trials", "value": 0.13, "unit": "E/100-PY"}, {"measurement": "Lymphoma", "setting": "[2]; pivotal trials", "value": 0.25, "unit": "E/100-PY"}, {"measurement": "Pancytopenia", "setting": "[2]; pivotal trials", "value": 0.25, "unit": "E/100-PY"}, {"measurement": "Pneumonia", "setting": "[2]; pivotal trials", "value": 1.13, "unit": "E/100-PY"}, {"measurement": "Septic arthritis", "setting": "[2]; pivotal trials", "value": 0.38, "unit": "E/100-PY"}, {"measurement": "Tuberculosis", "setting": "[2]; pivotal trials", "value": 0.13, "unit": "E/100-PY"}, {"measurement": "Urinary tract infections", "setting": "[2]; pivotal trials", "value": 0.5, "unit": "E/100-PY"}, {"measurement": "Serious infections", "setting": "[2]; pivotal trials, 793 patient-years", "value": 4.16, "unit": "E/100-PY"}]}]}
